Columns and labels:
[1] = substrate: Nc1nc2c(ncn2[C@@H]2O[C@H](COP(=O)(O)OP(=O)(O)OP(=O)(O)O)[C@@H](O)[C@H]2O)c(=O)[nH]1; test: fluorimetric neopterin detection after iodine oxidation and alkaline phosphatase; type: biochemical, Helicobacter pylori; settings: 100 mM sodium citrate pH 4.0, 30°C, 2.5 mM EDTA
Source text: fluorimetric neopterin detection after iodine oxidation and alkaline phosphatase on HP0959

[2] = substrate: Nc1ncnc2nc[nH]c12; test: purified protein; type: biochemical, Helicobacter pylori; settings: 100 mM HEPES pH 7.5, 30°C, native protein
[3] = substrate: Cc1cc(=O)oc2cc(NC(=O)[C@H](CCCNC(=N)N)NC(=O)[C@@H](N)Cc3ccccc3)ccc12; test: purified protein; settings: 100 mM sodium citrate pH 4.5, 30°C, 5 mM CaCl2, 0.1% Brij
[4] = substrate: O=[N+]([O-])c1ccc(OP(=O)(O)Oc2ccc([N+](=O)[O-])cc2)cc1; test: purified protein; type: biochemical, Helicobacter pylori; settings: 1.0 mM MnCl2, 100 mM sodium citrate pH 4.5 (4.0 in Figure 1 legend), 30°C
[5] = substrate: [H][C@@]12COP(=O)(O)O[C@@]1([H])[C@@H](O)[C@H](n1cnc3c(=O)[nH]c(N)nc31)O2; test: alkaline phosphatase-coupled phosphate release, malachite green; type: biochemical, Helicobacter pylori; settings: 0.1 mM MnCl2, pH 4.0-4.5, 30°C
[6] = substrate: Nc1nc2c(ncn2[C@@H]2O[C@H](COP(=O)(O)OP(=O)(O)OP(=O)(O)O)[C@@H](O)[C@H]2O)c(=O)[nH]1; test: phosphate release, malachite green; type: biochemical, Helicobacter pylori; settings: 10 mM MgCl2, 10% glycerol, 100 mM sodium acetate pH 6.0, 30°C
Source text: phosphate release, malachite green on HP1079

B1: HP0959 (Helicobacter pylori 26695) (protein)
chain: MALVKEVLVVLNRLSPFELQESWDNSGLNVGSENSEFSEIVACLEITLKIALNAPQNALIITHHPLIFKPLKTLNDEIYPGNILKILIQKNVSVISMHTNFDKTHLNKHFAHALLEFDGLVEKGLMLVKENANIEFDALVKKIKSSLGVGSLACVKSSQTIKDLAFVCGSGASMFSSLKAQSCLITGDVKYHDAMIAQSLGISLIDATHYYSERGFALIVAEILHSFNYLVTIENFKNPLQII
notes: native protein captured with GTP/dihydroneopterin triphosphate-coated nano-particles (co-captured with HP0803); His6 recombinant also active
B1 gave a Km [1] of 40 ± 5 µM, a Vmax [1] of 1420 µM/min and a kcat [1] of 43.2 ± 0.483 s⁻¹. For the same protein, the kcat/Km [1] was 1.08e+06 M⁻¹ s⁻¹.

B2: HP0267 (native protein) (Helicobacter pylori 26695) (protein)
chain: MQEIIGASLVFLCNEKCEVLEDYGVVFDEKIVEIGDYQSLTLKYPHLKAQFFENSVLLPAFINAHTHFEFSNNKASFDYGSFSGWLGSVLNNGGAILENCQGAIQNAISTQLKSGVGSVGAISNHLIEVNLLKESPLNAVVFLEFLGSSYSLEKLKAFEAKFKELKDLEDKKLKAALAVHAPYSVQKDMALSVIQLAKDSQSLLSTHFLESLEELEWVENSKGWFENFYQHFLKESHFKSLYKGANDYIDMFKDTHTLFVHNQFASLEALKRIKSQVKNAFLITCPFSNRLLSGQALDLERTKEAGLSVSVATDGLSSNISLSLLDELRAFLLTHNMPLLELAKIALLGATRHGAKALALNNGEIEANKRADLSVFGFNEKFTKEQAILQFLLHAKEVECLFLGGKRVI
notes: native protein captured from H. pylori lysate with adenine-coated gold nano-particles, gel filtration; no tag
In the case of B2, the Km [2] is reported as 2040 ± 160 µM, the Vmax [2] is reported as 3 µM/min and the kcat [2] is reported as 0.00783 ± 0.00217 s⁻¹. It also gave a kcat/Km [2] of 4 M⁻¹ s⁻¹.

B3: HP1037 (Helicobacter pylori 26695) (protein)
chain: MKGLERESHFTLNENAMFFECAYSCDNALFLQLDDRSFFITDSRYTQEAKESVQPKNGVLAEVVESSDLVQSAIDLIVKSSVKKLFFDPNQVNLQTYKRLNSALGDKVALEGVPSYHRQKRIIKNEHEIQLLKKSQALNVEAFENFAEYVKKIFDEKESLSERYLQHKVKDFLTREGVYDLSFEPILALNANASKPHALPSAKDFLKAEHSILLDMGIKYERYCSDRTRTAFFDPKDFVFKREQSFKDKERQKIYDIVKEAQEKAISGIRAGMTGKEADSLARGVISDYGYGQYFTHSTGHGIGLDIHELPYISSRSETILEEGMVFSVEPGIYIPGFFGVRIEDLVVIKNSRSELL
In the case of B3, the Km [3] is reported as 7430 ± 360 µM, the Vmax [3] is reported as 750 µM/min and the kcat [3] is reported as 0.17 s⁻¹. The kcat/Km [3] was 20 M⁻¹ s⁻¹.

B4: HP1042 (Helicobacter pylori 26695) (protein)
chain: MMQVYHLSHIDLDGYACQLVSKQFFKNIQCYNANYGREVSARIYEILNAIAQSKESEFLILVSDLNLNLNEAEYLQDKIQEHRLQNKNIQIQLLDHHISGKEVAESFHWYFLDINRCATKIVYEFLKKHYAILEPKNTTWLEPLVEMVNSVDIWDTQGYGFELGKVCMRMINQSSELNRFMFDDENRNYKLKLLEEVKNYLFLENAPVAYDNDLFKLKKIALGGDPDAETMDNISSNAQTHLLSLKKHDCSVYYQDKKGFLSYSMGGISVLANLFLTQNPDFDFYMDVNAKGNVSLRANGNCDVCELSQMCFNGGGHRNASGGKIDGFRESFNYRDIKEQIEEIFNNA
notes: native protein captured with cAMP-coated nano-particles; His6 recombinant also made
With B4 the Km [4] was 530 ± 40 µM, the Vmax [4] was 1130 µM/min and the kcat [4] was 18.1 ± 0.2 s⁻¹. For the same protein, the kcat/Km [4] was 34100 M⁻¹ s⁻¹, the Km [5] was 820 ± 150 µM and the Vmax [5] was 5130 µM/min. The kcat [5] was 15.9 ± 1.37 s⁻¹ and the kcat/Km [5] was 19500 M⁻¹ s⁻¹.

B5: HP1079 (Helicobacter pylori 26695) (protein)
chain: MIQSVRIKNFKNFKNTKIDGFTKLNIITGQNNAGKSNLLEALYYLVGKSMHPCTNVLEIYDNIRKEPLTSESKSLMFYGLDTKEEIQIVTTLDNNQTLDLQIKFIASENQKVIESQIIPTAEQTQMSSQLNFTLKKNNEEIYNDHLNIAKVPNFPPIPNQSGYNRQFKNFDSNQLQKLLPFESAVIIPSDVVYRQAHMIQAVSKICSNNQLEEELNKHLNQFDNNIQAISFNTNNQLKLKVKDIKEKVPLSVFGDGLKKYLHIVSAFMADNAKTIYIDEVENGLHFSRMRLLLKNTIDFINNNKDGNLQVFMTTHSQEFIEILDQVIREKDFAHQTKLFCLKQDDQYVIPRTYYGENLEYYFENEENLFG
notes: native protein captured with GTP-coated nano-particles; His6 recombinant also made
For B5, the Km [6] was 580 ± 50 µM, the kcat [6] was 0.0095 ± 0.002 s⁻¹ and the kcat/Km [6] was 20 M⁻¹ s⁻¹.
